From PMC12886537, “Dual-mode aptamer-driven biosensing platform for ultrasensitive and mutation-resilient detection of the SARS-CoV-2 nucleocapsid protein”

B1: NP11 (ssDNA)
DNA: TTTTTAAGCCCACTTTTCTGTGCCGGGCACAGCATGGGCTTGTCGTGCCATG
B2: NP1 (ssDNA)
DNA: TTTTTAACACGACCTCACTGTGCCGGCCACAGCTCACCACAGTGGGCCCATG
B3: NP14 (structured_DNA)
DNA: TTTTTAACACGACTCTCCTGTGGCCAGCGAACTGATTGCCTGTCGTGCCATG

Key:
[1] = biological target: T1, SARS-CoV-2 nucleocapsid (N) protein (SARS-CoV-2 (original/prototype), UniProt P0DTC9 1-419); assay: SPR; single concentration; conditions: protein: recombinant; tags: His; chain copies: 2
[2] = biological target: T1, SARS-CoV-2 nucleocapsid (N) protein; assay: ELONA; conditions: protein: recombinant; tags: His; chain copies: 2; label: biotin (ELONA); 5'-FAM (flow cytometry, confocal)
SARS-CoV N protein = SARS-CoV N protein (SARS-CoV, UniProt P59595 1-422); conditions: protein: commercial, chain copies: 2

| Binder | binding result [1] | binding result (SARS-CoV N protein) | also measured |
| --- | --- | --- | --- |
| B1 | binds | – | – |
| B2 | binds | – | – |
| B3 | – | – | Kd [2]: 3.68 nM; Kd (SARS-CoV N protein; label: biotin (ELONA), 5'-FAM (flow cytometry, confocal)): 3.45 nM |
| TTTTTAACACGACTCTCCTGTGGCCAGCGAACTGATGTGCCATG (structured_DNA) [NP14b] | – | binds | – |
| TTTTTAACACGACTCTCCTGTGGCATTGCCTGTCGTGCCATG (structured_DNA) [NP14a] | – | binds | – |
